Tests used:
SUVH5 SRA domain [1] = biological target: T1, SUVH5 SRA domain (Arabidopsis, UniProt O82175 362-528); assay: ITC; N = 0.48; ITC: 40 mM Tris-HCl pH 7.5, 50 mM NaCl, 2 mM b-mercaptoethanol, 25 C; FP: 20 mM Tris-HCl pH 7.5, 50 mM NaCl, 1 mM DTT, 20 C; EMSA: 25 mM Tris-HCl pH 7.5, 5% glycerol, 60 mM NaCl, 10 mM MgCl2, 0.4 mg/mL BSA, 2 mM DTT; details: protein: recombinant; tags: His6-SUMO, cleaved with Ulp1; chain copies: 2; self-complementary, 2 copies of strand
T1 sequence: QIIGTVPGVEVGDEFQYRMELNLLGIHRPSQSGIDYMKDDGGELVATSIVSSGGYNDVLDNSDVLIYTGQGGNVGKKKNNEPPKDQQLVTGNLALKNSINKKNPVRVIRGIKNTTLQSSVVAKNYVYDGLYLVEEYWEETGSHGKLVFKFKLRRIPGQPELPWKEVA

SUVH5 SRA domain [2] = biological target: T1, SUVH5 SRA domain; assay: ITC; N = 0.52; ITC: 40 mM Tris-HCl pH 7.5, 50 mM NaCl, 2 mM b-mercaptoethanol, 25 C; FP: 20 mM Tris-HCl pH 7.5, 50 mM NaCl, 1 mM DTT, 20 C; EMSA: 25 mM Tris-HCl pH 7.5, 5% glycerol, 60 mM NaCl, 10 mM MgCl2, 0.4 mg/mL BSA, 2 mM DTT; details: protein: recombinant; tags: His6-SUMO, cleaved with Ulp1; chain copies: 2; self-complementary, 2 copies of strand
SUVH5 SRA domain [3] = biological target: T1, SUVH5 SRA domain; assay: ITC; ITC: 40 mM Tris-HCl pH 7.5, 50 mM NaCl, 2 mM b-mercaptoethanol, 25 C; FP: 20 mM Tris-HCl pH 7.5, 50 mM NaCl, 1 mM DTT, 20 C; EMSA: 25 mM Tris-HCl pH 7.5, 5% glycerol, 60 mM NaCl, 10 mM MgCl2, 0.4 mg/mL BSA, 2 mM DTT; details: protein: recombinant; tags: His6-SUMO, cleaved with Ulp1; chain copies: 2
SUVH5 SRA domain [4] = biological target: T1, SUVH5 SRA domain; assay: ITC; N fixed to 0.5; 3-fold higher concentrations; ITC: 40 mM Tris-HCl pH 7.5, 50 mM NaCl, 2 mM b-mercaptoethanol, 25 C; FP: 20 mM Tris-HCl pH 7.5, 50 mM NaCl, 1 mM DTT, 20 C; EMSA: 25 mM Tris-HCl pH 7.5, 5% glycerol, 60 mM NaCl, 10 mM MgCl2, 0.4 mg/mL BSA, 2 mM DTT; details: protein: recombinant; tags: His6-SUMO, cleaved with Ulp1; chain copies: 2; self-complementary, 2 copies of strand
SUVH5 SRA domain [5] = biological target: T1, SUVH5 SRA domain; assay: ITC; N fixed to 0.5; endothermic; 3-fold higher concentrations; ITC: 40 mM Tris-HCl pH 7.5, 50 mM NaCl, 2 mM b-mercaptoethanol, 25 C; FP: 20 mM Tris-HCl pH 7.5, 50 mM NaCl, 1 mM DTT, 20 C; EMSA: 25 mM Tris-HCl pH 7.5, 5% glycerol, 60 mM NaCl, 10 mM MgCl2, 0.4 mg/mL BSA, 2 mM DTT; details: protein: recombinant; tags: His6-SUMO, cleaved with Ulp1; chain copies: 2; self-complementary, 2 copies of strand
UHRF1 SRA domain = biological target: T2, UHRF1 SRA domain (mammalian? (species ), UniProt Q96T88-2 427-630); assay: fluorescence polarization; 20 C; ITC: 40 mM Tris-HCl pH 7.5, 50 mM NaCl, 2 mM b-mercaptoethanol, 25 C; FP: 20 mM Tris-HCl pH 7.5, 50 mM NaCl, 1 mM DTT, 20 C; EMSA: 25 mM Tris-HCl pH 7.5, 5% glycerol, 60 mM NaCl, 10 mM MgCl2, 0.4 mg/mL BSA, 2 mM DTT; details: protein: recombinant; tags: His6-SUMO, cleaved with Ulp1; label: 5'-6FAM
T2 sequence: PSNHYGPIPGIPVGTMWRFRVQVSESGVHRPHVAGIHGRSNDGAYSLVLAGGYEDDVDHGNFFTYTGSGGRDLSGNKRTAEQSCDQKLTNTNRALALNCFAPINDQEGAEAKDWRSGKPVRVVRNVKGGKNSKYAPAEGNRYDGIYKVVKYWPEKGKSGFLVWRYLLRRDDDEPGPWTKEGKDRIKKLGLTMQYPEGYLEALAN

SUVH5 SRA domain [6] = biological target: T1, SUVH5 SRA domain; assay: X-ray crystal structure (2.6 A); 2:1 complex, dual 5hmC flip-out; ITC: 40 mM Tris-HCl pH 7.5, 50 mM NaCl, 2 mM b-mercaptoethanol, 25 C; FP: 20 mM Tris-HCl pH 7.5, 50 mM NaCl, 1 mM DTT, 20 C; EMSA: 25 mM Tris-HCl pH 7.5, 5% glycerol, 60 mM NaCl, 10 mM MgCl2, 0.4 mg/mL BSA, 2 mM DTT; details: protein: recombinant; tags: His6-SUMO, cleaved with Ulp1; chain copies: 2; self-complementary, 2 copies of strand; 3' T overhang

B1: fully-5mCG duplex (ITC) (dsDNA)
DNA 1: CAGCTCGAGCTG
DNA 2: CAGCTCGAGCTG
modifications: 5mC at central CG, both strands
SUVH5 SRA domain [1]
  Kd: 1.2 ± 0.09 µM

B2: fully-5hmCG duplex (ITC) (dsDNA)
DNA 1: CAGCTCGAGCTG
DNA 2: CAGCTCGAGCTG
modifications: 5hmC at central CG, both strands
SUVH5 SRA domain [2]
  Kd: 1.5 ± 0.12 µM

B3: hemi-5hmCG duplex (ITC) (dsDNA)
DNA 1: CCATGCGCTGAC
DNA 2: GTCAGCGCATGG
modifications: 5hmC at central CG, one strand
SUVH5 SRA domain [3]
  Kd: 7.6 ± 0.6 µM

B4: fully-5caCG duplex (ITC) (dsDNA)
DNA 1: CAGCTCGAGCTG
DNA 2: CAGCTCGAGCTG
modifications: 5caC at central CG, both strands
SUVH5 SRA domain [4]
  Kd: ~150 µM

B5: fully-5fCG duplex (ITC) (dsDNA)
DNA 1: CAGCTCGAGCTG
DNA 2: CAGCTCGAGCTG
modifications: 5fC at central CG, both strands
SUVH5 SRA domain [5]
  Kd: ~125 µM

B6: hemi-5mCG 12-mer (dsDNA)
DNA 1: CCATGCGCTGAC
DNA 2: GTCAGCGCATGG
modifications: X = 5mC, one strand
UHRF1 SRA domain
  Kd: 0.35 µM

B7: fully-5hmCG 10-mer with 3'-T overhang (crystal) (dsDNA)
DNA 1: ACTACGTAGTT
DNA 2: ACTACGTAGTT
modifications: 5hmC at position 5, both strands
SUVH5 SRA domain [6]
  binding result: binds
